Series [1] is described as follows: Quantum yield of solubilized protein (Cy5 reference). It counts as physicochemical. The conditions noted are these: excitation at 600 nm. As to the method: Solubilization and spectroscopic characterization of QuasAr1 and QuasAr: E. coli expressing QuasAr1 and QuasAr2 were grown in 12 mL LB medium with 200 μg/ml ampicillin overnight. The next day, 12 mL of liquid LB medium containing 50 μM retinal, 200 μg/ml ampicillin and 0.1% arabinose was added into the overnight culture, followed by additional incubation at 37° C. for 4 hours. The cell pellets were collected by centrifugation and lysed by suspension in B-PER solution (Pierce). The cytoplasmic fraction was discarded after centrifugation and the colored insoluble fraction was resuspended in phosphate buffered saline (PBS) containing 1.5% n-dodecyl-β-D-maltopyranoside (Affymetrix, Inc.). The suspension was homogenized by an ultrasonic homogenizer and centrifuged (17,000 g for 15 mins, 4° C.). The solubilized protein in the supernatant was used for in vitro spectroscopic characterization.
Absorption spectra were recorded on a DU-800 UV-visible spectrophotometer (Beckman) and fluorescence spectra were recorded on a Safire2 plate reader (Tecan). Cy5 carboxylic acid (Cyandye) was used as the reference for quantum yield measurement. Quantum yield measurements were performed on a series of dilutions of each protein solution and standard, with absorbance values ranging from 0.01 to 0.05 at 600 nm. The fluorescence emission spectra of each dilution were recorded with excitation at 600 nm and the total fluorescence intensities obtained by integration. Integrated fluorescence intensity vs. absorbance was plotted for each protein and each standard. Quantum yields, Φ, were determined from the slopes (S) of each line using the equation: Φprotein=Φstandard×(Sprotein/Sstandard).

The next series relates to HEK293T cells. Description: Simultaneous whole-cell patch clamp electrophysiology and fluorescence in HEK cells (brightness, voltage sensitivity, speed). The conditions noted are these: for voltage sensitivity (ΔF/F per 100 mV): HEK cells. The format is cell-based. As to the method:
Simultaneous electrophysiology and fluorescence in HEK cells: HEK293T cells (ATCC CRL-11268) were cultured and transfected following standard protocols.^10 Briefly, HEK-293 cells were grown at 37° C., 5% CO2, in DMEM supplemented with 10% FBS and penicillin-streptomycin. Plasmids were transfected using Transit 293T (Mirus) following the manufacturer's instructions, and assayed 48 hours later. The day before recording, cells were re-plated onto glass-bottom dishes (MatTek) at a density of ˜10,000 cells/cm^2.
Cells were supplemented with retinal by diluting stock retinal solutions (40 mM, DMSO) in growth medium to a final concentration of 5 μM, and then returning the cells to the incubator for 0.5-1 hour. All imaging and electrophysiology were performed in Tyrode buffer (containing, in mM: 125 NaCl, 2.5 KCl, 3 CaCl2, 1 MgCl2, 10 HEPES, 30 glucose pH 7.3, and adjusted to 305-310 mOsm with sucrose). A gap junction blocker, 2-aminoethoxydiphenyl borate (50 μM, Sigma), was added to eliminate electrical coupling between cells.
Filamented glass micropipettes (WPI) were pulled to a tip resistance of 5-10 MΩ, and filled with internal solution containing 125 mM potassium gluconate, 8 mM NaCl, 0.6 mM MgCl2, 0.1 mM CaCl2, 1 mM EGTA, 10 mM HEPES, 4 mM Mg-ATP, 0.4 mM Na-GTP (pH 7.3); adjusted to 295 mOsm with sucrose. Pipettes were positioned with a Sutter MP285 manipulator. Whole-cell, voltage and current clamp recordings were acquired using an […] 700B amplifier (Molecular Devices), filtered at 2 kHz with the internal Bessel filter and digitized with a National Instruments PCIE-6323 acquisition board at 5-10 kHz. Data was only acquired from HEK cells having reversal potentials between −10 and −40 mV, access resistance<25 MΩ and membrane resistance>0.5 GΩ.
Simultaneous whole-cell patch clamp recordings and fluorescence recordings were acquired on a home-built, inverted epifluorescence microscope, described previously^10 and described below in “Apparatus”. For step response measurements, voltage clamp electronics were compensated 90-95%. We examined variants of QuasAr1 with mutations at position 95 (Asn, Cys, Gin, His and Tyr) and position 106 (Arg, Asp, Asn, Cys, Glu, His, Lys and Tyr). These experiments confirmed that histidine at position 106 provided undetectable photocurrent, and the best combination of improved voltage sensitivity, and fast kinetics.
We compared the fluorescence, voltage sensitivity, and speed of the QuasArs to wild-type Arch in HEK cells, using epifluorescence microscopy and whole-cell patch clamp electrophysiology. Under low intensity illumination (640 nm, 500 mW/cm^2), QuasAr1 was 15-fold brighter than wild-type Arch, and QuasAr2 was 3.3-fold brighter (FIG. 1B; Methods).
On the technique in general: In patch-clamp work, channel activity is measured electrically.

The conditions of series [2]: earlier work, cited from earlier work.
Series [3] relates to cultured rat hippocampal neurons. Briefly: Photocurrent in cultured rat hippocampal neurons. The format is cell-based. As to the method: FIGS. 4A-4B show the photophysics of QuasArs in mammalian cells. […] Steady state photocurrents were calculated by averaging the current over the last 0.25 seconds of light exposure and subtracting the holding current (cells held at −65 mV) in the dark. These currents hyperpolarized cells by 25±4 mV and 19±3 mV, respectively. […] The double mutants had mutations at the locations of the proton acceptor (Asp95) and proton donor (Asp106) to the Schiff base. QuasAr1 includes mutations D95H, D106H, and QuasAr2 includes mutations D95Q, D106H. The three additional backbone mutations in the QuasArs (P60S, T80S, F161V) increased brightness relative to the double mutants, Fluorescence of each Arch mutant was measured with excitation at 640 nm and emission from 660-760 nm. To control for variation in expression level, fluorescence was normalized by eGFP fluorescence (λexc=488 nm, λem=510−550 nm). Error bars represent s.e.m. for measurements on n=5-10 cells.
Measurements were performed on primary cultures at 13-15 DIV. Experiments were conducted in Tyrode's solution containing 125 mM NaCl, 2.5 mM KCl, 3 mM CaCl2, 1 mM MgCl2, 10 mM HEPES, 30 mM glucose (pH 7.3) and adjusted to 305-310 mOsm with sucrose. Prior to imaging, neurons were incubated with 5 μM all-trans retinal for 30 minutes and then washed with Tyrode's solution.
Synaptic blockers were added to the imaging medium for measurements of single-cell electrophysiology (Arch photocurrents, and single-cell excitability). The blockers comprised NBQX (10 μM, Tocris), D(−)-2-amino-5-phosphonovaleric acid (APS; […]), and gabazine (SR-95531, 20 μM, Tocris). For measurements of channel rhodopsin photocurrents in neurons, TTX (1 μM, Tocris) was included along with the synaptic blockers to prevent recruitment of voltage gated sodium channels. […] Recordings were terminated if membrane resistance changed by >10%. Experiments were performed at 23° C. under ambient atmosphere unless otherwise noted.

[4] abbreviates: blue illumination (488 nm, 500 mW/cm^2).
The mark [5] stands for this setting: red illumination (640 nm, 300 W/cm^2).

The source of these data is patent publication US9518103B2, “Optogenetic probes for measuring membrane potential” (President and Fellows of Harvard College, priority 2014, dated 2016).

Where two headings read alike, the source gives them in different places.

B1: Arch D95N: Archaerhodopsin 3 D95N mutant, non-pumping voltage indicator of US 2013/0224756 (protein)
chain: MDPIALQAGYDLLGDGRPETLWLGIGTLLMLIGTFYFLVRGWGVTDKDAREYYAVTILVPGIASAAYLSMFFGIGLTEVTVGGEMLDIYYARYANWLFTTPLLLLDLALLAKVDRVTIGTLVGVDALMIVTGLIGALSHTAIARYSWWLFSTICMIVVLYFLATSLRSAAKERGPEVASTFNTLTALVLVLWTAYPILWIIGTEGAGVVGLGIETLLFMVLDVTAKVGFGFILLRSRAILGDTEAPEPSAGADVSAAD
As to B1, the Quantum yield in series [1] is listed as 4 × 10^−4. The “Quantum yield relative to Arch D95N” value in series [1] amounted to 1. Also, the “voltage sensitivity (ΔF/F per 100 mV)” value in the series on HEK293T cells worked out at 60%. The results for the “step response / response time” value in series [2] and in series [2] (listed as Arch 3 D95N) were 41 ms and 40 ms, respectively.

B2: Arch D95H/D106H/P60S: Arch triple mutant D95H, D106H, P60S (protein)
chain: MDPIALQAGYDLLGDGRPETLWLGIGTLLMLIGTFYFLVRGWGVTDKDAREYYAVTILVSGIASAAYLSMFFGIGLTEVTVGGEMLDIYYARYAHWLFTTPLLLLHLALLAKVDRVTIGTLVGVDALMIVTGLIGALSHTAIARYSWWLFSTICMIVVLYFLATSLRSAAKERGPEVASTFNTLTALVLVLWTAYPILWIIGTEGAGVVGLGIETLLFMVLDVTAKVGFGFILLRSRAILGDTEAPEPSAGADVSAAD
On to B2, for which, in series [1], the Quantum yield is 5 × 10^−3 and the “Quantum yield relative to Arch D95N” value amounted to 12.

B3: Arch(WT): wild-type Archaerhodopsin 3, light-driven proton pump from Halobacterium sodomense (protein)
chain: MDPIALQAGYDLLGDGRPETLWLGIGTLLMLIGTFYFLVRGWGVTDKDAREYYAVTILVPGIASAAYLSMFFGIGLTEVTVGGEMLDIYYARYADWLFTTPLLLLDLALLAKVDRVTIGTLVGVDALMIVTGLIGALSHTAIARYSWWLFSTICMIVVLYFLATSLRSAAKERGPEVASTFNTLTALVLVLWTAYPILWIIGTEGAGVVGLGIETLLFMVLDVTAKVGFGFILLRSRAILGDTEAPEPSAGADVSAAD
modifications: Halobacterium sodomense
notes: wild-type Archaerhodopsin 3, light-driven proton pump from Halobacterium sodomense
On to B3, for which the Quantum yield entry in series [1] is recorded as “*Due to the low light intensities used to determine QYs, fluorescence from Arch was not detected above baseline”. Further, in the series on HEK293T cells, the “voltage sensitivity compared with QuasAr2” value is reported as “three-fold less than the sensitivity of QuasAr2” and the “voltage sensitivity (ΔF/F per 100 mV)” value was 40%. For the same molecule, in the series with HEK293T cells (23° C.), the “τdown (+30 mV to −70 mV) % τ1” value amounted to 67%, the “τdown (+30 mV to −70 mV) τ1” value worked out at 0.25 ms, the “τdown (+30 mV to −70 mV) τ2” value is given as 1.9 ms and the “τup (−70 mV to +30 mV) τ1” value is recorded as 0.6 ms. For the same molecule, in the series on HEK293T cells (23° C., HEK293 cells), the “Brightness (λexc = 640 nm) 0.7 W/cm^2” value is 1, the “Brightness (λexc = 640 nm) 800 W/cm^2” value stood at 4.0 and the “Sensitivity (ΔF/F per 100 mV)” value was 40%. Moreover, in series [3] (setting [4]), the “hyperpolarization of cells by photocurrent” value is 19±3 mV and the photocurrent amounted to 140±25 pA. In series [3] (setting [5]), the “hyperpolarization of cells by photocurrent” value is listed as 25±4 mV and the photocurrent worked out at 220±30 pA. In series [2], the “step response / response time” value is 0.6 ms.

B4: Arch D95H/D106H/F161V: Arch triple mutant D95H, D106H, F161V (protein)
chain: MDPIALQAGYDLLGDGRPETLWLGIGTLLMLIGTFYFLVRGWGVTDKDAREYYAVTILVPGIASAAYLSMFFGIGLTEVTVGGEMLDIYYARYAHWLFTTPLLLLHLALLAKVDRVTIGTLVGVDALMIVTGLIGALSHTAIARYSWWLFSTICMIVVLYVLATSLRSAAKERGPEVASTFNTLTALVLVLWTAYPILWIIGTEGAGVVGLGIETLLFMVLDVTAKVGFGFILLRSRAILGDTEAPEPSAGADVSAAD
As to B4, in series [1], the Quantum yield is 5 × 10^−3 and the “Quantum yield relative to Arch D95N” value was determined as 13.

B5: Arch D95H/D106H: Arch double mutant D95H, D106H (protein)
chain: MDPIALQAGYDLLGDGRPETLWLGIGTLLMLIGTFYFLVRGWGVTDKDAREYYAVTILVPGIASAAYLSMFFGIGLTEVTVGGEMLDIYYARYAHWLFTTPLLLLHLALLAKVDRVTIGTLVGVDALMIVTGLIGALSHTAIARYSWWLFSTICMIVVLYFLATSLRSAAKERGPEVASTFNTLTALVLVLWTAYPILWIIGTEGAGVVGLGIETLLFMVLDVTAKVGFGFILLRSRAILGDTEAPEPSAGADVSAAD
For B5, in series [1], the Quantum yield is reported as 2 × 10^−3 and the “Quantum yield relative to Arch D95N” value was determined as 4.2. Besides, the “voltage sensitivity compared with QuasAr2” value in the series on HEK293T cells was “three-fold less than the sensitivity of QuasAr2”.
